B1: Amyloid-like protein 1: CSF protein bound to fibrils (protein, UniProt P51693 39-650, looked up)
Amyloid beta precursor like …: SLAGGSPGAAEAPGSAQVAGLCGRLTLHRDLRTGRWEPDPQRSRRCLRDPQRVLEYCRQMYPELQIARVEQATQAIPMERWCGGSRSGSCAHPHHQVVPFRCLPGEFVSEALLVPEGCRFLHQERMDQCESSTRRHQEAQEACSSQGLILHGSGMLLPCGSDRFRGVEYVCCPPPGTPDPSGTAVGDPSTRSWPPGSRVEGAEDEEEEESFPQPVDDYFVEPPQAEEEEETVPPPSSHTLAVVGKVTPTPRPTDGVDIYFGMPGEISEHEGFLRAKMDLEERRMRQINEVMREWAMADNQSKNLPKADRQALNEHFQSILQTLEEQVSGERQRLVETHATRVIALINDQRRAALEGFLAALQADPPQAERVLLALRRYLRAEQKEQRHTLRHYQHVAAVDPEKAQQMRFQVHTHLQVIEERVNQSLGLLDQNPHLAQELRPQIQELLHSEHLGPSELEAPAPGGSSEDKGGLQPPDSKDDTPMTLPKGSTEQDAASPEKEKMNPLEQYERKVNASVPRGFPFHSSEIQRDELAPAGTGVSREAVSGLLIMGAGGGSLIVLSMLLLRRKKPYGAISHGVVEVDPMLTLEEQQLRELQRHGYENPTYRFLEERP
B2: Calsyntenin-1: CSF protein bound to fibrils (protein, UniProt O94985 29-981, looked up)
Calsyntenin-1: ARVNKHKPWLEPTYHGIVTENDNTVLLDPPLIALDKDAPLRFAESFEVTVTKEGEICGFKIHGQNVPFDAVVVDKSTGEGVIRSKEKLDCELQKDYSFTIQAYDCGKGPDGTNVKKSHKATVHIQVNDVNEYAPVFKEKSYKATVIEGKQYDSILRVEAVDADCSPQFSQICSYEIITPDVPFTVDKDGYIKNTEKLNYGKEHQYKLTVTAYDCGKKRATEDVLVKISIKPTCTPGWQGWNNRIEYEPGTGALAVFPNIHLETCDEPVASVQATVELETSHIGKGCDRDTYSEKSLHRLCGAAAGTAELLPSPSGSLNWTMGLPTDNGHDSDQVFEFNGTQAVRIPDGVVSVSPKEPFTISVWMRHGPFGRKKETILCSSDKTDMNRHHYSLYVHGCRLIFLFRQDPSEEKKYRPAEFHWKLNQVCDEEWHHYVLNVEFPSVTLYVDGTSHEPFSVTEDYPLHPSKIETQLVVGACWQEFSGVENDNETEPVTVASAGGDLHMTQFFRGNLAGLTLRSGKLADKKVIDCLYTCKEGLDLQVLEDSGRGVQIQAHPSQLVLTLEGEDLGELDKAMQHISYLNSRQFPTPGIRRLKITSTIKCFNEATCISVPPVDGYVMVLQPEEPKISLSGVHHFARAASEFESSEGVFLFPELRIISTITREVEPEGDGAEDPTVQESLVSEEIVHDLDTCEVTVEGEELNHEQESLEVDMARLQQKGIEVSSSELGMTFTGVDTMASYEEVLHLLRYRNWHARSLLDRKFKLICSELNGRYISNEFKVEVNVIHTANPMEHANHMAAQPQFVHPEHRSFVDLSGHNLANPHPFAVVPSTATVVIVVCVSFLVFMIILGVFRIRAAHRRTMRDQDTGKENEMDWDDSALTITVNPMETYEDQHSSEEEEEEEEEEESEDGEEEDDITSAESESSEEEEGEQGDPQNATRQQQLEWDDSTLSY
B3: Fibulin-1: CSF protein bound to fibrils (protein, UniProt P23142 30-703, looked up)
Fibulin-1: DVLLEACCADGHRMATHQKDCSLPYATESKECRMVQEQCCHSQLEELHCATGISLANEQDRCATPHGDNASLEATFVKRCCHCCLLGRAAQAQGQSCEYSLMVGYQCGQVFQACCVKSQETGDLDVGGLQETDKIIEVEEEQEDPYLNDRCRGGGPCKQQCRDTGDEVVCSCFVGYQLLSDGVSCEDVNECITGSHSCRLGESCINTVGSFRCQRDSSCGTGYELTEDNSCKDIDECESGIHNCLPDFICQNTLGSFRCRPKLQCKSGFIQDALGNCIDINECLSISAPCPIGHTCINTEGSYTCQKNVPNCGRGYHLNEEGTRCVDVDECAPPAEPCGKGHRCVNSPGSFRCECKTGYYFDGISRMCVDVNECQRYPGRLCGHKCENTLGSYLCSCSVGFRLSVDGRSCEDINECSSSPCSQECANVYGSYQCYCRRGYQLSDVDGVTCEDIDECALPTGGHICSYRCINIPGSFQCSCPSSGYRLAPNGRNCQDIDECVTGIHNCSINETCFNIQGGFRCLAFECPENYRRSAATLQQEKTDTVRCIKSCRPNDVTCVFDPVHTISHTVISLPTFREFTRPEEIIFLRAITPPHPASQANIIFDITEGNLRDSFDIIKRYMDGMTVGVVRQVRPIVGPFHAVLKLEMNYVVGGVVSHRNVVNVHIFVSEYWF
B4: α2-HS-glycoprotein: CSF protein bound to fibrils (protein, UniProt P02765 19-300; P02765 341-367, looked up)
Alpha-2-HS-glycoprotein chain … 1: APHGPGLIYRQPNCDDPETEEAALVAIDYINQNLPWGYKHTLNQIDEVKVWPQQPSGELFEIEIDTLETTCHVLDPTPVARCSVRQLKEHAVEGDCDFQLLKLDGKFSVVYAKCDSSPDSAEDVRKVCQDCPLLAPLNDTRVVHAAKAALAAFNAQNNGSNFQLEEISRAQLVPLPPSTYVEFTVSGTDCVAKEATEAAKCNLLAEKQYGFCKATLSEKLGGAEVAVTCMVFQTQPVSSQPQPEGANEAVPTPVVDPDAPPSPPLGAPGLPPAGSPPDSHVL
Alpha-2-HS-glycoprotein chain … 2: TVVQPSVGAAAGPVVPPCPGRIRHFKV
B5: Cystatin-C: CSF protein bound to fibrils (protein, UniProt P01034 27-146, looked up)
Cystatin-C: SSPGKPPRLVGGPMDASVEEEGVRRALDFAVGEYNKASNDMYHSRALQVVRARKQIVAGVNYFLDVELGRTTCTKTQPNLDNCPFHDQPHLKRKAFCSFQIYAVPWQGTMTLSKSTCQDA

How the values were obtained:
Experiment in all cases: Fibril incubation with CSF, quantitative MS/MS of bound proteins
Ab2 fibrils = system: T1, Ab2 fibrils; assay type: binding, human; settings: 4:1 w/w CSF protein:fibril
T1 construct: Two structurally distinct fibrils of the Aβ(1–40) peptide associated with AD
Description: (§1) Plasma and CSF solutions were centrifuged (40,000 g, 20 min) to remove any aggregates. The protein concentration was determined using 280 nm absorbance assuming 1 Abs = 1 mg/mL. […] Control samples (without fibril material) were prepared similarly. All samples were incubated at room temperature for one hour under gentle agitation. Fibrils and fibril-bound proteins were pelleted by centrifugation at 17,000 g for 30 minutes. The supernatant (175 μL) was removed and the aggregate was re-suspended in 175 μL PBS and pelleted again before further preparation for gel analysis and spin-filter assisted digest for quantitative MS/MS.
(§2) The fibril-protein pellets were transferred to spin-filters (0.22 μm), washed twice in PBS (100 μL) and once in 1 M NaCl (100 μL). The fibrils and fibril-bound proteins were dissolved by one-hour incubation in 100 μL 6 M guanidinium chloride followed by elution from the spin-filter. The eluted proteins were loaded onto a 3 kDa MWCO filter unit for filter-assisted unfolding, reduction, alkylation, and trypsin digestion. In brief, samples were washed twice in 8 M urea, once in 8 M urea with 50 mM DTT, once in 8 M urea with 50 mM iodoaceteamide, and twice in 8 M Urea. The filter units were dried by centrifugation (14,000 g in 30 minutes) after every addition. Trypsin digestion was carried out with 0.25 μg sequencing grade trypsin from Sigma Aldrich in 50 mM ammonium bicarbonate overnight at 37 °C. The tryptic peptides were collected by centrifugation, acidified with TFA (0.1%) and micro-purified using POROS R2 column material (Applied Biosystems) packed in P200 pipette tips (Sarstedt).
(§3) LC-MS/MS analyses were performed on an EASY-nLC II system (Thermo Fisher Scientific) connected to a TripleTOF 5600+ mass spectrometer (Sciex) equipped with a NanoSpray III source (Sciex) and operated under Analyst TF 1.6.0 control.
(§4) The micro-purified tryptic peptides were dissolved in 0.1% formic acid, injected and trapped on an in-house packed trap column (2 cm × 100 μm I.D) with RP ReproSil-Pur C18-AQ 3 μm resin (Dr. Maisch GmbH). Peptides were eluted from the trap column and separated on a 15 cm analytical column (75 μm i.d.) packed in-house in a pulled emitter with RP ReproSil-Pur C18-AQ 3 μm resin (Dr. Maisch GmbH). Elution from the analytical column was performed with a linear gradient from 5% to 35% phase B (90% acetonitrile with 0.1% formic acid) over 20 min for protein identification and 50 min for quantitative analysis, respectively.
(§5) All samples were analysed three times, yielding nine MS/MS experiments for each fibril for both plasma and CSF. For the area-based extracted ion chromatogram (XIC) quantification, the acquisition method was set up as an information-dependent acquisition (IDA) experiment collecting up to 25 MS/MS spectra in each 1.6 sec cycle using an exclusion window of 6 sec.
(§6) XIC quantification was based on the average ion intensity of the three most abundant peptides for each protein. Only proteins quantified in at least four out of nine MS/MS experiments per fibril were included in the quantification. The total ion scores were visualized after grouping the proteins according to function (Figure S11).
(§7) For each MS/MS experiment, the ion intensities of the individual proteins were normalized to the total ion intensity of that MS/MS experiment to achieve a relative protein composition. The contribution of each protein was averaged over all nine MS/MS experiments (Tables 1 and 2).

glucagon fibrils = target: T2, glucagon fibrils (Homo sapiens, UniProt P01275); assay type: binding; settings: 4:1 w/w CSF protein:fibril
T2 construct: fibrils of the peptide hormone glucagon
Description: as §1, §2, §3, §4, §5, §6, §7

αSN fibrils = αSN fibrils (Homo sapiens, UniProt P37840); assay type: binding; parameters: key to Identification status of CSF protein bound: αSN: *: Identified, but not quantified; —: Not identified in any of the samples; settings: for Identification status of CSF protein bound: αSN: symbol cells
Description: as §1, §2, §3, §4, §5, §6, §7

C-36 fibrils = target: T3, C-36 fibrils (Homo sapiens, UniProt P01009); assay type: binding; parameters: key to Identification status of CSF protein bound: C-36: *: Identified, but not quantified; —: Not identified in any of the samples; settings: for Relative composition of CSF proteins bound: C-36: 4:1 w/w CSF protein:fibril
T3 construct: the 36 residue C-terminal fragment of α1-antitrypsin (C-36)
Description: as §1, §2, §3, §4, §5, §6, §7

FAS4-AD aggregates = system: T4, FAS4-AD aggregates; assay type: binding, human; parameters: key to Identification status of CSF protein bound: FAS4-AD: *: Identified, but not quantified; —: Not identified in any of the samples; settings: symbol cells
T4 construct: aggregates of a mutated version of the FAS1-4 domain of TGFBIp
Description: as §1, §2, §3, §4, §5, §6, §7

Ab1 fibrils = system: T5, Ab1 fibrils; assay type: binding, human; settings: 4:1 w/w CSF protein:fibril
T5 construct: Synthetic amyloid β peptide 1–40 was purchased from Caslo Aps (Lyngby, Denmark); purchased Caslo Aps (Lyngby, Denmark); host or cells: synthetic peptide
Description: as §1, §2, §3, §4, §5, §6, §7

T2 sequence (P01275 53-81 limits assumed): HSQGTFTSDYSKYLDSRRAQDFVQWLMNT
T3 sequence (P01009 383-418 limits assumed): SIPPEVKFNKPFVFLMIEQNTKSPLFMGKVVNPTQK

Molecule	Relative composition of CSF proteins bound: Ab2 (Ab2 fibrils)	Relative composition of CSF proteins bound: Glucagon (glucagon fibrils)	Identification status of CSF protein bound: αSN (αSN fibrils)	Relative composition of CSF proteins bound: C-36 (C-36 fibrils)	Identification status of CSF protein bound: FAS4-AD (FAS4-AD aggregates)	Relative composition of CSF proteins bound: Ab1 (Ab1 fibrils)	Relative composition of CSF proteins bound: αSN (αSN fibrils; 4:1 w/w CSF protein:fibril)	Identification status of CSF protein bound: C-36 (C-36 fibrils; symbol cells)
B1	3.4 ± 0.7 % of total protein	0.6 ± 0.0 % of total protein	*	2.0 ± 0.1 % of total protein	—	2.8 ± 0.2 % of total protein		
B2	1.8 ± 0.8 % of total protein	0.4 ± 0.2 % of total protein		1.2 ± 0.1 % of total protein	—		3.1 ± 0.4 % of total protein	
B3	1.3 ± 0.1 % of total protein	0.3 ± 0.0 % of total protein	—	1.2 ± 0.2 % of total protein	—	1.4 ± 0.1 % of total protein		
B4	1.9 ± 0.6 % of total protein	0.7 ± 0.2 % of total protein	*	3.6 ± 0.7 % of total protein	—	1.1 ± 0.0 % of total protein		
B5	6.0 ± 0.6 % of total protein	0.9 ± 0.0 % of total protein	*		*	3.9 ± 0.4 % of total protein		*

Reference: article PMC6405930, “Conservation of the Amyloid Interactome Across Diverse Fibrillar Structures” (Scientific Reports, 2019)
